Consider 40 sequences from the nanobody polyreactivity screen of Harvey et al. (2022).

This data set is described as follows: yeast display, Sf9 membrane polyspecificity reagent, FACS + sequencing; frameworks hold sequencing errors. The method, boiled down: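 Using colony PCR, genes from sorted yeast display clones were amplified, then sequenced on MiSeq at 2 × 250 and filtered by CDR length. The clones had been stained with 10% biotinylated, detergent-solubilized Sf9 membrane reagent for 1 hour at 4 °C and sorted by FACS into low and high (top ~1%) gates on anti-HA and streptavidin fluorescence. Polyreactivity labels come from the gate of origin.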
Consider “QVKLVESGGGLVQAGCSLRISCAASGITFKNYAMGWYRQAHGKERELVAAIRSIAGRTNYADSVKGRFTISRDYANNTVYLKMNSLKPEDTAVYYFTAANRGQRSDYRGYYYWGQGTQVTVSS”, for which the “polyreactivity (PSR sort gate)” value was “high polyreactivity”.

Turning to “QVQLVESGGGLVQAGGSLRLTCAASGSTLKSYAMGWYRQAPGKERELVAAITRSGARTYYADSVQGRFTISRDNAKNTVYFQMNSLKPEDTAVYYCNRVGYQYGSDQEDDYWGQGTQVTVSS”, the “polyreactivity (PSR sort gate)” value was “high polyreactivity”.

With “QVQLVESGGGLVQAGGSLRLSCAATARIFVRYAMGWYRQAPGKERELVAAISTSGGRTYYADSVKGRFTISRDNAKNTVYLQMNSLKPEDTAVYYCNARIKRPRGVYGGDYWGQGTQVTVSS”, the “polyreactivity (PSR sort gate)” value was “high polyreactivity”.

For the sequence “QVQLVESGGGLVQAGGSLRLSCAASGNIFIYNAMGWYRQAPGQERELVAAISVSGGDTYYADSVKGRFTISRDNAKNTVYLQMNSLKPEDTAVYYCKASYVLTGQRYGYWGQGTQVTVSS”, the “polyreactivity (PSR sort gate)” value is “low polyreactivity”.

Regarding “QVQLVESRGGLVQAGGSLRLSCAASGYIFRSNAMGWYRQAPGKERELVAAITRSGGSTYYADSVKGRFTISRDNAKITVFLQMNSLKPEDTAVYYCAVLPRGSNGMDYWGQGTQVTVSS”, the “polyreactivity (PSR sort gate)” value was “low polyreactivity”.

On to “QVQLVESGGGLVQAGGSLRLSCAASGSTFTANAMGWSRQAPGKERELVAAISRSGGSTYYADSVKWRFTISRDNAKNTVYLQMNSLKPEDTAVYYCAAESPLFSPPDGEDYWGQGTQVTVSS”, for which the “polyreactivity (PSR sort gate)” value is “low polyreactivity”.

As to “QVQLVESGGGLVQAGGSLRLSCAASGSIFPRNAMGWYRQAPGKERELVAAITSSGGTTYYADSVKGRFTISRDNAKNTVYLQMISLKPEDTAVYYCNAAYPYSSVGRDYWGQGTQVTVSS”, the “polyreactivity (PSR sort gate)” value was “high polyreactivity”.

For “QVQLVESGGGLVQAGGSLRLSCAASGSTFTSYAMGWYRQAPGKERELVAAISKSGGSTYYADSVKGRFTISRDNAKKTVYFQMNSLKPEDTAVYYCAARYNVRSFSTSSFDYWGQGTQVTVSS”, the “polyreactivity (PSR sort gate)” value is reported as “low polyreactivity”.

“QVQLVESGGGLVQAGGSLRLSCAASGSIFGGYTMGWYRQAPGKERELVAGITISGGSTYYADSVKGRFTISRDNAKNTVYLQMNSLKPEDTAVYYCAAVSFVVSSWGYGYWGQGTQVTVSS”: the “polyreactivity (PSR sort gate)” value is listed as “low polyreactivity”.

In the case of “QVQLVESGGGLVQAGGSLRLSCAASGRTFRYNVMGWYRQAPGKERELVAAIRKRSGSTYYADSVKGRFTISRDNAKNTVYLQMISLKPEDTAVYYCNTEYHYGTASASDYWGQGTQVTVSS”, the “polyreactivity (PSR sort gate)” value was “high polyreactivity”.

With “QVHLVESGGGLVQAGGSLRLSCAASGRNSLRNGMGWYKQAPGKEWELDPAITSGSSTDYADSVKGRFTISRDNAKNTVDLEMNSLKPEDTAVSYCAKDLLQYGPGAGRYDYWGQGTQVTVSS”, the “polyreactivity (PSR sort gate)” value is “low polyreactivity”.

As to “QVQLVESGGGLVQAGGSLRLRSPASGSTLYRYAMGWYRQAPGKERELVAAIYSSGGTTFYADSVKGRFTISRDNAKKTVYLQMKSLKPEDTAVYYCNRTARKLRTVHSSVVGLDYWGQGTQVTVSS”, the “polyreactivity (PSR sort gate)” value was “low polyreactivity”.

For “QVQLVESGVGLVQAGGSLRLICAASGFTFAKYAMGWYRQAPGKERELVAAISRSAGSTYYADSVKGRFTISRDYAKNTVYLQMNSLIPDDTAVYYCAADPLIYDDYYWGQGSQVTVSS”, the “polyreactivity (PSR sort gate)” value is on record as “high polyreactivity”.

Take “QVQLVESGGGLVQAGGSLRLSCAASGSIFLSNAMGWYRQAPGKERELVAAISRRGASTYYADSVKGRFTISRDNAKNTVYFQMNSLKPEDTAVYYCAALSYSAYGYNYWGQGTQVTVSS”: the “polyreactivity (PSR sort gate)” value is listed as “high polyreactivity”.

As to “QVQLVESGGGLVQAGGSLRLSCAASGRTFKPNAMGWYRQAPGKERELVASINDVGSTNYADSVKGRFTISRDNAKNTVYLQMNSLKPEDTAVYYCAADPYWYPYYGYYILYDYWGQGTHVTVSS”, the “polyreactivity (PSR sort gate)” value is given as “low polyreactivity”.

As to “QVKLVESGGGLVQAGGSLRLSCAASGRTFIYYAMGWYRQAPGKERELVAGITYSVGSTYYADSVKGRFTISRDNAKNTVYLQMNSLKPEVTAVYYCAAKPVGTYSRPHDYWGQGTQVTVSS”, the “polyreactivity (PSR sort gate)” value is recorded as “low polyreactivity”.

In the case of “QVQLVESGGGLVQAGGSLRLSCAASGRTFYTNAMGWYRQAAGKERELVAVISRGGTTYYADSVKGRFTISRDNAKNTVYLQMNSLKPEDTAVYYCAKQRPSGDSSSQMGSWGQGTQVTVSS”, the “polyreactivity (PSR sort gate)” value is recorded as “low polyreactivity”.

For “QVQLVESGGGLVQAGGSLSLSCAASGSTFSVYAMGWYRQAPGKERELVAAITRSGGSTYYADSVKGRFTISRDNAKNTVYLQMNSLIAEDSAVYYCNAEWYYVWFITTYWLDQYGYWGQGTQVTVSS”, the “polyreactivity (PSR sort gate)” value is “low polyreactivity”.

In the case of “QVQLVESGGGLVQAGGSLRLSCAASGSTFRYYAMGWYRQAPGKERELVAAISTGGTTYYADSVKGRFTISRENAKNTVYLQMNSLKPEDTAVYYCNTVRLFDYGYWGQGTQVTVSS”, the “polyreactivity (PSR sort gate)” value is “low polyreactivity”.

“QVQLVDSGGGLVQAGGSLRLSCAASGSTFSSYAMGWYRQAPGKERELVDVITRGTSTNYADSVKGRFTISRDNAKNTVYLQMNSLKPEDTAVYYCNSRRGSRRFGYCGQGTQVTVSS”: the “polyreactivity (PSR sort gate)” value is given as “high polyreactivity”.

On to “QVQLVESGGGLVQAGGSLRLSCAASGIIFIGYAMGWYRQAAGKERELVAAITRSGVSTYYADSVKGRFTISRDNAKNTVYLQMNSLKPEDTAVYYCAARYFGEKYSQGFDYWGQGTQVTVSS”, for which the “polyreactivity (PSR sort gate)” value is “low polyreactivity”.

“QVQLVESGGGIVQAGGSLRLSCAASGSTIRYYAMGWYRQAPGKERELVAAITYSGTRTYYADSVKGRFTISRDNAKTTVYLQMNSLKPEDTAVYYCNAVAKHRGVGIYTPYDYWGQGTQVTVSS”: the “polyreactivity (PSR sort gate)” value is reported as “high polyreactivity”.

Take “QVQLVESGGGLVQAGGSLRLSCAASGSTFYVNTMGGSRQAPGKERELVAAISGSGGSTYYADSVKGRFTISRDNAKNTVYLQMNCLKPEETAVYYCAAYGWRLWYRFNYWGQGTQVTVSS”: the “polyreactivity (PSR sort gate)” value is recorded as “high polyreactivity”.

As to “QVQLQESGGGLVQAGGSLRLSCAASGSIFHLHIMCWYRQAPGKERESVAAISYGTSTYYADSVKGRFTICRDNAKNTVYLKMNSPKPDDTAVYYCAALFLVSKHHHYWGEGTQVTVSS”, the “polyreactivity (PSR sort gate)” value is on record as “low polyreactivity”.

Turning to “QVQLVESGGRLVQAGGSLRLSCAASGSIIVYNTMGWYRQAPGKERELVAAITVRDDSTYYADSVKGRFTISRDNAKNTVYLQMNSLKPEDTAVYYCNARGNFLIGRDYWGQGTQVTVSS”, the “polyreactivity (PSR sort gate)” value is “low polyreactivity”.

With “QVQLVESGGGLVQAGGSLRLSCAASGFTFTYYTMGWYRQAPGKARELVAAISWSGGSTYYADSVKGRLTISRDNANNPVYLQMNSLKPEDTEVYYCNKVGIGYNTKRDYWGQGTQVTVSS”, the “polyreactivity (PSR sort gate)” value is reported as “high polyreactivity”.

“QVQLVESGGGLVQAGGRLRLICAASGSILNNYAMGWYRQAPGKERELVAAISSSGGTNYADSVKGRFTISRDNAKNTVYLQMNSLKPEDTAVYYCNADVLDGGYDYWGQGTQVTVSS”: the “polyreactivity (PSR sort gate)” value is “low polyreactivity”.

On to “QVQLVESGGGLVQAGGSLRLSCAASGFTFRVYAMGWYRQAPGKERELVAAITKRGGSTYYADSVKGRFTISRDNAKNTVYLQMNSLKPEDTAVYYCATENTPHYASHGYWGQGTQVTVSS”, for which the “polyreactivity (PSR sort gate)” value is given as “high polyreactivity”.

In the case of “QVQVVESGGGLVQAGGSLRLSCAASGSIFPVYAMGWYRQAPGKERELVAAISSGGSTNYADSVKGRFTISRDNAKNTVYLQRNSLKPEDTAVYYSARRWYYVRHGYWGQGTQVTVSS”, the “polyreactivity (PSR sort gate)” value is given as “high polyreactivity”.

With “QVQLVESGGGLVQAGGSLRLSCAASGRTFNFNTMGWYRQSPGKERELVASITSGGSTNYADSVKGRFTISRDNAKNTVYIQMNILKPEDTAVYYFAVTVSGPYAYDYWGQGTQVTVSS”, the “polyreactivity (PSR sort gate)” value is “low polyreactivity”.

Turning to “QVQLVESGGGLVQAGGSLRLSCAASGRTFRYNAMGWYRQATGKVRELVAAISGRGSSTYYADSVKGRFTISRDNAKNTVYLQMNSLKPDDTAVYYCAALPASVRRPGWHDYWGQGTQVTVSS”, the “polyreactivity (PSR sort gate)” value is listed as “high polyreactivity”.

“QVQLVESGGGLVQAGGSLRLSCAASGRTFKYNAIGWYRQAPGKERELVAVISRSTGRTYYADSVKGRFTISRDNAKNTVYLQMNSLKPEDTAVYYCNRVSRQYYYQRGFEYDYWGQGTQVTVSS”: the “polyreactivity (PSR sort gate)” value is recorded as “high polyreactivity”.

On to “QVQLVESGGGLVQAGGSLRLSCAASGSTFDGYAMGWYRQAPGKERELVASISWDDVRTYYADSVKGRFTISRDNAKNTVYLQMNSLKPEDTAVYDCAKGDIEYFWSRIYGYWGQGTQVTVSS”, for which the “polyreactivity (PSR sort gate)” value is “low polyreactivity”.

As to “QVQLVESGGGLVQAGGSLRLSCAASGLTFYSYAMGWYSPAPGKERELVAAITSSGSITYYADSVKGRFTISRDNAKNTVYLQMNSLKPEDTAVYYCAARPYRVRGQRFEGNYWGQGTQVTVSS”, the “polyreactivity (PSR sort gate)” value is listed as “high polyreactivity”.

As for “QVQLVESGGGLVQAGGSLRLSCAASGRTFGSYVMGWYRQAPGKERELVAAISSRGTRTYYADSVKGRFTISRDNAKNTVYLQMNSLKPEDTAVYYCAAEWPYRFQYGEMDYWGQGTQVTVSS”, the “polyreactivity (PSR sort gate)” value is on record as “high polyreactivity”.

As to “QVQLVESGGGLVQAGGSHRLSCAASGFIFGRNAMGWYRQATGKDRELVDANTRSGGSTYYADSVKGRFTISRDNAKNTVYLQLYSLKPEDTAVYYCAKGLFTWGVFRVGIRDDYWGQGTQVTVSS”, the “polyreactivity (PSR sort gate)” value is recorded as “high polyreactivity”.

With “QVQLVESGGGLVQAGGSLRLICAASGRTFGYNAMGWYRQAPGKEREFVAAISWSGGRTYYADSVKGRFTISRDNAKNTVYLQMNSLKPEHSAVYYCAAGFGDGPGNGYYTRYSWDDDYWGQGTQVTVSS”, the “polyreactivity (PSR sort gate)” value is “low polyreactivity”.

Regarding “QVQLVESGGGLVQAGGSLRLSCAASGFIFGLYAMGWYRQAPGKERELVASISRRGGSTYYADSVKGRFTISRDNAKNTVYLQMNSLKPEDTAVYYCNAVGRLYLYGSWGQGTQVTVSS”, the “polyreactivity (PSR sort gate)” value is given as “high polyreactivity”.

As for “QVQLVESGGGLVQAGGSLRLSCAASGSIFFIYAMAWYRQAPGKERELVATISRSDVSTFYADSVKGRFTISRDNAKNTVYLQMNSLKPEDTAVYYCAARTGRGDRTRRYYYWGQGTQVTVSS”, the “polyreactivity (PSR sort gate)” value is “high polyreactivity”.

Take “QVQLVESGGGLVQAGGSLRLSCAASGFTFRKYAMGWYRQAPGKERELVAANTSGGGSTYYADSVKGRFTISRDNAKNTVYLQMNSLKPEDTAVYYCAAKRSGGQGQGYGYWGQGTQVTVSS”: the “polyreactivity (PSR sort gate)” value was “high polyreactivity”.
